{"source": "patent US20250281600A1", "about": "(published 2025)", "molecular_target": "SARS-COV-2 Spike Protein Native RBD (UniProt P0DTC2 333-526)", "assay": "BLI", "data": [{"binder": "REGN10933 IgG (antibody, V domains shown) VH: QVQLVESGGGLVKPGGSLRLSCAASGFTFSDYYMSWIRQAPGKGLEWVSYITYSGSTIYYADSVKGRFTISRDNAKSSLYLQMNSLRAEDTAVYYCARDRGTTMVPFDYWGQGTLVTVSS VL: DIQMTQSPSSLSASVGDRVTITCQASQDITNYLNWYQQKPGKAPKLLIYAASNLETGVPSRFSGSGSGTDFTFTISGLQPEDIATYYCQQYDNLPLTFGGGTKVEIKR", "values": [{"measurement": "Kd", "value": 1.8, "unit": "nM"}]}]}
